In patent US20220009992A1 (FRED HUTCHINSON CANCER CENTER, published 2022):

Molecular target: peptide #10 (from the gene EHF) presented on peptide-pulsed T2 target cells (human, UniProt P61769 21-119)
Assay: cell-based or functional assay

B1: TCR Msln530-B11 (TCR, V domains shown)
V domain 1: ETGVTQSPTHLIKTRGQQVTLRCSSQSGHNTVSWYQQALGQGPQFIFQYYREEENGRGNFPPRFSGLQFPNYSSELNVNALELDDSALYLCASSFAGGRSDTQYFGPGTRLTVLE
V domain 2: KQEVTQIPAALSVPEGENLVLNCSFTDSAIYNLQWFRQDPGKGLTSLLLIQSSQREQTSGRLNASLDKSSGRSTLYIAASQPGDSATYLCAVRLLFAQGGSEKLVFGKGTKLTVNP
EC50 of peptide for IFN-γ production, ratio to the EC50 for Msln530: > 3000 fold (EC50 for peptide #10 over EC50 for Msln530)
